Consider 5 molecules from article PMC13534702, “Polo/PLK1 phosphorylation relieves Centrosomin/Cnn autoinhibition to promote centrosome scaffold assembly” (The EMBO Journal, 2026).

Usually stoichiometry N stands for a count of units in the complex or per binding partner.

First the molecules themselves.
T1: Full-length SPD-5-GFP (C. elegans), P91349
T1 chain: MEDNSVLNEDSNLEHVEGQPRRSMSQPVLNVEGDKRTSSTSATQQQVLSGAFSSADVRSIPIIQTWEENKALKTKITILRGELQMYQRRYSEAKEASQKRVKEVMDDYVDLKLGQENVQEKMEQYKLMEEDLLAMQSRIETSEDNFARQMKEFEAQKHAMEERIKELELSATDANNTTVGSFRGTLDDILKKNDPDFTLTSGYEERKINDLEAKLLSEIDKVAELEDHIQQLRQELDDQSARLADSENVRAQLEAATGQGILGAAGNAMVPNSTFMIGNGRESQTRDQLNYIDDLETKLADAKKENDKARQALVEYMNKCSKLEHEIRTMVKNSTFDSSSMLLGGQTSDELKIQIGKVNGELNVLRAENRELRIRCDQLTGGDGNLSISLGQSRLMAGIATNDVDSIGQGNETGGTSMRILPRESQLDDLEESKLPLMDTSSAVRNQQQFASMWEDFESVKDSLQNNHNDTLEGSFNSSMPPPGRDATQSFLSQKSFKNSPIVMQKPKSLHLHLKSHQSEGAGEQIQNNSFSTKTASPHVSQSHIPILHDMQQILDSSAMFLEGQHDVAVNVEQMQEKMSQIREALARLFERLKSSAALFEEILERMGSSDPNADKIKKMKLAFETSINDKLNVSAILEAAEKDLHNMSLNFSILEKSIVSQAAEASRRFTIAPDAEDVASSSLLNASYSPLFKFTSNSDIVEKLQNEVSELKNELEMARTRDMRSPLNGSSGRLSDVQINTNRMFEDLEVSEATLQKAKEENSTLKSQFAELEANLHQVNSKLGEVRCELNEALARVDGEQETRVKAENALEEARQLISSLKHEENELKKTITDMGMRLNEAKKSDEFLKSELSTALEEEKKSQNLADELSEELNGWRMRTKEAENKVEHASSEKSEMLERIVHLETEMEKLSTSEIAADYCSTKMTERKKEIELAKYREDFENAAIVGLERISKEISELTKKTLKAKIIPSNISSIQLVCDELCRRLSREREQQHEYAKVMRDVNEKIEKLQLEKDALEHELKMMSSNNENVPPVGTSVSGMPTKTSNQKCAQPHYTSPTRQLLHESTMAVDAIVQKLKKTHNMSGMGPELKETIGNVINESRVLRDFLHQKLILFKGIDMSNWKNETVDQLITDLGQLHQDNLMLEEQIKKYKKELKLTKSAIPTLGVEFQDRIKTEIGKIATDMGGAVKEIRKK

T2: Cnn_(490-608), tag cleaved (SEC-MALS) (Drosophila melanogaster, UniProt P54623-2 490-608)
T2 construct: also called PReMΔH1ΔNTH2; source: E. coli BL21 (DE3), purified, tag cleaved for SEC-MALS; not shown: His6, N-terminal, cleaved; MBP, N-terminal, cleaved
T2 sequence (looked up): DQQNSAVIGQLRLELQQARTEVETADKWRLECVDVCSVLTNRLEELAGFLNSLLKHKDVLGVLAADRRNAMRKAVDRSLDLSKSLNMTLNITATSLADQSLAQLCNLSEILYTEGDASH

T3: MBP-Cnn_(490-608) 2E (S567E/S571E) (Drosophila melanogaster, UniProt P54623-2 490-608, S567E | S571E)
T3 construct: also called 2E mutant; source: E. coli BL21 (DE3), purified; not shown: MBP, N-terminal, kept
T3 sequence (looked up): T2 sequence (looked up) with S78E, S82E

B1: MBP-Cnn_(490-608) WT (domain or fragment, Drosophila melanogaster, UniProt P54623-2 490-608, looked up)
chain: T2 sequence (looked up)
notes: I take the same protein to have been used there; source: E. coli BL21 (DE3), purified; not shown: MBP, N-terminal, kept
B2: MBP-Cnn_(490-608) 2A (S567A/S571A) (domain or fragment, Drosophila melanogaster, UniProt P54623-2 490-608, looked up)
chain: T2 sequence (looked up) with S78A, S82A
notes: also called 2A-mutant PReM; source: E. coli BL21 (DE3), purified; not shown: MBP, N-terminal, kept
B3: Full-length SPD-5-GFP, P91349 1-1198 (natural protein)
chain: T1 chain
B4: Full-length Cnn-GFP (natural protein, Drosophila melanogaster, UniProt P54623-2 1-1148, looked up)
chain: MDQSKQVLRDYCGDGNGTCASSLKEITLIETVTSFLEENGAAEIDRRVLRKLAEALSKSIDDTSPGALQDVTMENSYASFDVPRPPGGGNSPLPSQGRSVRELEEQMSALRKENFNLKLRIYFLEEGQPGARADSSTESLSKQLIDAKIEIATLRKTVDVKMELLKDAARAISHHEELQRKADIDSQAIIDELQEQIHAYQMAESGGQPVENIAKTRKMLRLESEVQRLEEELVNIEARNVAARNELEFMLAERLESLTACEGKIQELAIKNSELVERLEKETASAESSNANRDLGAQLADKICELQEAQEKLKERERIHEQACRTIQKLMQKLSSQEKEIKKLNQENEQSANKENDCAKTVISPSSSGRSMSDNEASSQEMSTNLRVRYELKINEQEEKIKQLQTEVKKKTANLQNLVNKELWEKNREVERLTKLLANQQKTLPQISEESAGEADLQQSFTEAEYMRALERNKLLQRKVDVLFQRLADDQQNSAVIGQLRLELQQARTEVETADKWRLECVDVCSVLTNRLEELAGFLNSLLKHKDVLGVLAADRRNAMRKAVDRSLDLSKSLNMTLNITATSLADQSLAQLCNLSEILYTEGDASHKTFNSHEELHAATSMAPTVENLKAENKALKKELEKRRSSEGQRKERRSLPLPSQQFDNQSESEAWSEPDRKVSLARIGLDETSNSLAAPEQAISESESEGRTCATRQDRNRNSERIAQLEEQIAQKDERMLNVQCQMVELDNRYKQEQLRCLDITQQLEQLRAINEALTADLHAIGSHEEERMVELQRQLELKNQQIDQLKLAHSTLTADSQITEMELQALQQQMQEIEQLHADSVETLQSQLQKLKLDAVQQLEEHERLHREALERDWVALTTYQEQAQQLLELQRSLDYHQENEKELKQTLVENELATRALKKQLDESTLQASKAVMERTKAYNDKLQLEKRSEELRLQLEALKEEHQKLLQKRSNSSDVSQSGYTSEEVAVPMGPPSGQATTCKQAAAAVLGQRVNTSSPDLGIESDAGRISSVEVSNAQRAMLKTVEMKTEGSASPKAKSEESTSPDSKSNVATGAATVHDCAKVDLENAELRRKLIRTKRAFEDTYEKLRMANKAKAQVEKDIKNQILKTHNVLRNVRSNMENEL
notes: Centrosomin (Cnn), Drosophila melanogaster, full length, synthesised gene; also called Cnn-WT; not shown: MBP, N-terminal, cleaved; mGFP, C-terminal, kept; His10, C-terminal, cleaved
B5: Drosophila Cnn CM2 domain (domain or fragment, Drosophila melanogaster, UniProt P54623-2 1082-1148, looked up)
chain: HDCAKVDLENAELRRKLIRTKRAFEDTYEKLRMANKAKAQVEKDIKNQILKTHNVLRNVRSNMENEL
notes: the EM methods print 1077-1148; The methods say that the N-terminal tag was cleaved for SEC-MALS, crystallisation or further use; also called DmCM2; fly CM2; source: E. coli BL21 (DE3), purified

Where a chain is given by its changes, count along the chain named. In names and notes the source's numbering stands.

Series [1] concerns the molecule itself. The experiment in a line: SEC; MBP-Cnn 490-608 variants run alone; absorbance at 280 nm; size judged from the elution volume. For orientation: In gel filtration, larger molecules generally elute earlier.
The target in series [2] is T1, Full-length SPD-5-GFP (C. elegans), …. In words: mass photometry; full-length GFP fusions in solution; 20 mM HEPES, 150 mM KCl, pH 7.25; low nanomolar concentration (10 nM final by the procedure of the standards). To be noted: remark: other sources report otherwise.
Series [3] concerns the molecule itself. Described as above.
For series [4], the target named is T2, Cnn_(490-608), tag cleaved (SEC-MALS). In words: SEC-MALS; Cnn 490-608 mixed with CM2; Superdex 75 or Superdex 200 10/300 Increase; 20 mM Tris pH 7.5, 150 mM NaCl, 0.5 mM TCEP; 0.5 mL/min; fraction checked on an SDS gel. To be noted: both partners purified.
The series “MBP-Cnn_(490-608) WT” has as its target B1. The experiment in a line: SEC; PReM domain (Cnn 490-608) variants mixed with CM2; fractions checked on SDS gels. The following applies: both partners purified.
In series [5] the target is T3, MBP-Cnn_(490-608) 2E (S567E/S571E). Described as above. The following applies: both partners purified.

For B1, the “stoichiometry N” value in series [1] amounted to 2. With B2, the “stoichiometry N” value in series [1] came out at 2. Take B3: in series [2], the stoichiometry N was determined as 2. Regarding B4, the “stoichiometry N” value in series [3] amounted to 2. Turning to B5, the binding result (in series [4]; with MBP-Cnn_(490-608) WT; in series [5]) was “binds” throughout.
